Data as given in patent publication US20240293561A1, “BRAIN PERMEABLE MULTIFUNCTIONAL SYSTEM AND USES THEREOF” (NANOCARRY THERAPEUTICS LTD., priority 2021, published 2024).

Test: Delivery of cisPt&IgG1&Ins-GNPs into mice brain, Au and Pt measured by ICP-OES
Format: in vivo, Male BALB/c mice
Conditions: 8 hours after IV injection, after perfusion
Experimental: Male BALB/c mice were divided into four treatment groups: • Group 1: Anti-IgG1 & insulin-conjugated GNPs (IgG1&Ins-GNPs; n=2) • Group 2: Cisplatin & insulin-conjugated GNPs (CisPt&Ins-GNPs; n=2) • Group 3: Multifuctional GNPs (cisPt&IgG1&Ins-GNPs; n=2) • Group 4: Free cisplatin (n=2)
Mice were injected intravenously with IgG1&Ins-GNPs (200 μl, 25 mg/ml), cisPt&Ins-GNPs (200 μl of 25 mg/ml), cisPt&IgG1&Ins-GNPs (200 μl of 25 mg/ml), or with equivalent amounts of free cisplatin. Eight hours post injection, mice underwent perfusion to remove all the particles residing within the blood vessels. Then, mice brains were extracted and analyzed using ICP-OES to measure the amounts of Au and Pt that penetrated into the brain (FIGS. 6A and 6B, respectively).

cisPt&Ins-GNPs: GNPs conjugated with insulin and cisplatin; control particle
amount of Pt within the brain compared with equivalent dose of free cisplatin: significantly higher
